Experimental data taken from US11214624 (PRODA BIOTECH, dated 2022).
Each block holds one binder with its values, some of them ahead of it.

Experiments:
[1] = target: T1, kinesin (endogenous, in SW480 cell extracts) (UniProt P33176 2-963); experiment: co-immunoprecipitation in extracts of scratch-wounded SW480 cells
T1 construct: also called heavy chain of kinesin-1
T1 sequence (looked up): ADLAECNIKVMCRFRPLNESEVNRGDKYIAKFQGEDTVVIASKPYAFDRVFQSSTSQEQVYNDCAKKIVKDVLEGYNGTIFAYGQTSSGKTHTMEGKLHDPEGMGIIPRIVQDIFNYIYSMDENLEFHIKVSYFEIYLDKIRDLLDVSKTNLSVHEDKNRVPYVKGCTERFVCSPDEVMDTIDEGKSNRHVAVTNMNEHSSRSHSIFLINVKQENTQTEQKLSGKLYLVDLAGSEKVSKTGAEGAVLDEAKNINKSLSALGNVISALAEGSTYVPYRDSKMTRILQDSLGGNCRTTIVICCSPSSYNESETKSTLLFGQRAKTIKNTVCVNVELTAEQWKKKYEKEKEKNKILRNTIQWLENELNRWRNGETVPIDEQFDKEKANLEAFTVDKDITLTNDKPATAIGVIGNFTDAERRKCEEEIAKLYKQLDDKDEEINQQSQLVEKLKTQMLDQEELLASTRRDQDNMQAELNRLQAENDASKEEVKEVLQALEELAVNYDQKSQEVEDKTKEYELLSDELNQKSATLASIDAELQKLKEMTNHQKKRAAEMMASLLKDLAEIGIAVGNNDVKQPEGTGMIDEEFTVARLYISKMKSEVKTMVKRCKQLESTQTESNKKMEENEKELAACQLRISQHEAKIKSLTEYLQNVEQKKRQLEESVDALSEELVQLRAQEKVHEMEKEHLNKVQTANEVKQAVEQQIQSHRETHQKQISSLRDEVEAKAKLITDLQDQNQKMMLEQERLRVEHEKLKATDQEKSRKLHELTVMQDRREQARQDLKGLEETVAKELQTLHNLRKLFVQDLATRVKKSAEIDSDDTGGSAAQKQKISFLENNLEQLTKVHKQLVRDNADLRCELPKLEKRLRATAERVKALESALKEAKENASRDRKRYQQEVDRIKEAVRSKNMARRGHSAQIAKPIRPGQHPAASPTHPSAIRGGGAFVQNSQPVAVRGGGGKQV

[2] = target: T2, dynein (endogenous, in SW480 cell extracts) (UniProt O14576 2-645); experiment: as above
T2 construct: Multi-subunit motor; also called Dynein intermediate 1
T2 sequence (O14576 2-645): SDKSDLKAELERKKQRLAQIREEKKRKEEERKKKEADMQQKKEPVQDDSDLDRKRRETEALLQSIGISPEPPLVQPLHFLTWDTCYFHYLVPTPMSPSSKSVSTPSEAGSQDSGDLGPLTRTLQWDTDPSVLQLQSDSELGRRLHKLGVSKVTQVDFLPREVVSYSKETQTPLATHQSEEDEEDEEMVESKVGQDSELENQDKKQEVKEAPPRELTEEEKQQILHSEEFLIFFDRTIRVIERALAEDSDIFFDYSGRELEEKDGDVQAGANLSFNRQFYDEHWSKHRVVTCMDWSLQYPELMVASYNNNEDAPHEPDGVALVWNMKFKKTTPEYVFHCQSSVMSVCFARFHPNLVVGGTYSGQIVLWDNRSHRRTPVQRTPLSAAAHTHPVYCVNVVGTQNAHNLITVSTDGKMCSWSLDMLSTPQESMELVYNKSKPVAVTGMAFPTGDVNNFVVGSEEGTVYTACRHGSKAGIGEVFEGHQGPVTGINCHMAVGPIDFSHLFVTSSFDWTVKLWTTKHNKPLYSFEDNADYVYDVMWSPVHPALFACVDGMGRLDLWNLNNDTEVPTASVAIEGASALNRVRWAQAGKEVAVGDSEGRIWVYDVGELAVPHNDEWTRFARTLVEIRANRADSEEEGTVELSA

binding result [1]: no binding
binding result [2]: no binding
B1: p68 RNA helicase (endogenous, in SW480 cell extracts) (enzyme)
chain: MSGYSSDRDRGRDRGFGAPRFGGSRAGPLSGKKFGNPGEKLVKKKWNLDELPKFEKNFYQEHPDLARRTAQEVETYRRSKEITVRGHNCPKPVLNFYEANFPANVMDVIARQNFTEPTAIQAQGWPVALSGLDMVGVAQTGSGKTLSYLLPAIVHINHQPFLERGDGPICLVLAPTRELAQQVQQVAAEYCRACRLKSTCIYGGAPKGPQIRDLERGVEICIATPGRLIDFLECGKTNLRRTTYLVLDEADRMLDMGFEPQIRKIVDQIRPDRQTLMWSATWPKEVRQLAEDFLKDYIHINIGALELSANHNILQIVDVCHDVEKDEKLIRLMEEIMSEKENKTIVFVETKRRCDELTRKMRRDGWPAMGIHGDKSQQERDWVLNEFKHGKAPILIATDVASRGLDVEDVKFVINYDYPNSSEDYIHRIGRTARSTKTGTAYTFFTPNNIKQVSDLISVLREANQAINPKLLQLVEDRGSGRSRGRGGMKDDRRDRYSAGKRGGFNTFRDRENYDRGYSSLLKRDFGAKTQNGVYSAANYTNGSFGSNFVSAGIQTSFRTGNPTGTYQNGYDSTQQYGSNVPNMHNGMNQQAYAYPATAAAPMIGYPMPTGYSQ
notes: Endogenous protein in lysates of SW480 cells; also called Human p68

B2: HA-tagged wild-type p68 (HA-p68), immunopurified from SW480 cell lysates (enzyme)
chain: B1 chain
notes: One construct, purified from SW480 cells either with or without scratch-wound treatment; also called HA-p68 WT; WT; not shown: hemagglutinin (HA) tag from the pHM6 vector
binding result [1]: no binding
binding result [2]: no binding
